Data: patent publication US12006519B2, “Polymerase mutants and use with 3′-OH unblocked reversible terminators” (Agilent Technologies, Inc., priority 2021, dated 2024)
Positions count from the first letter of the chain named. In names and notes the source's numbering stands.

B1: Pfu10-N12: Pfu10 variant with 15 conservative mutations plus M129A, SEQ ID NO:3 (protein)
chain: MILDVDYITEEGKPIIRLFKKENGKFRIEHDRTFRPYIYALLRDDSKIEEIKKITGERHGKIVRIVDVEKVEKKFLGKPVTVWRLYLEHPQDVPTIREKVKEHPAVIDIFEYDIPFAKRYLIDKGLVPAEGEEELKILAFAIATLYHEGEEFGKGPIIMISYADENEAKVITWKNIDLPYVEVVSSEREMIKRFVKIIKEKDPDIIVTYNGDSFDFPYLAKRAEKLGVKLTIGRDGSEPKMQRIGDMTAVEVKGRIHFDLYHVITRTINLPTYTLEAVYEAIFGKPKEKVYADEIAKAWESGENLERVAKYSMEDAKATYELGKEFLPMEIQLSRLVGQPLWDVSRSSTGNLVEWFLLRKAYERNEVAPNKPSEEEYQRRLRESYTGGFVKEPEKGLWENIVYLDFRALYPSIIITHNVSPDTLNLEGCKNYDIAPQVGHKFCKDIPGFIPSLLGHLLEERQKIKTKMKETQDPIEWILLDYRQKLIKLLANSFYGYYGYARARWYCRECAESVTAWGRKYIELTWKELEEKFGFKVLYIDTDGLHATIPGGESEEIKKKALEFVKYINSKLPGLLELEYEGFYKRGFFVTKKRYAVIDEEGKVITRGLEIVRRDWSEIAKETQARVLETILKHGDVEEAVRIVKEVIQKLANYEIPPEKLAIYEQITRPLHEYKAIGPHVAVAKKLAAKGVKIKPGMVIGYIVLRGDGPISNRAILAEEYDPKKHKYDAEYYIENQVLPAVLRILEGFGYRKEDLRYQKTRQVGLTSWLNIKKS
modifications: Mutant of Pyrococcus furiosus Polymerase
B2: K476W: Therminator with mutation K476W (9° N DNA pol numbering) (protein, UniProt Q56366 1-775, looked up, variant D141A E143A A485L K476W)
DNA polymerase: MILDTDYITENGKPVIRVFKKENGEFKIEYDRTFEPYFYALLKDDSAIEDVKKVTAKRHGTVVKVKRAEKVQKKFLGRPIEVWKLYFNHPQDVPAIRDRIRAHPAVVDIYEYDIPFAKRYLIDKGLIPMEGDEELTMLAFAIATLYHEGEEFGTGPILMISYADGSEARVITWKKIDLPYVDVVSTEKEMIKRFLRVVREKDPDVLITYNGDNFDFAYLKKRCEELGIKFTLGRDGSEPKIQRMGDRFAVEVKGRIHFDLYPVIRRTINLPTYTLEAVYEAVFGKPKEKVYAEEIAQAWESGEGLERVARYSMEDAKVTYELGREFFPMEAQLSRLIGQSLWDVSRSSTGNLVEWFLLRKAYKRNELAPNKPDERELARRRGGYAGGYVKEPERGLWDNIVYLDFRSLYPSIIITHNVSPDTLNREGCKEYDVAPEVGHKFCKDFPGFIPSLLGDLLEERQKIKRKMKATVDPLEWKLLDYRQRLIKILANSFYGYYGYAKARWYCKECAESVTAWGREYIEMVIRELEEKFGFKVLYADTDGLHATIPGADAETVKKKAKEFLKYINPKLPGLLELEYEGFYVRGFFVTKKKYAVIDEEGKITTRGLEIVRRDWSEIAKETQARVLEAILKHGDVEEAVRIVKEVTEKLSKYEVPPEKLVIHEQITRDLRDYKATGPHVAVAKRLAARGVKIRPGTVISYIVLKGSGRIGDRAIPADEFDPTKHRYDAEYYIENQVLPAVERILKAFGYRKEDLRYQKTKQVGLGAWLKVKGKK
modifications: Therminator
B3: T590I: Therminator with mutation T590I (9° N DNA pol numbering) (protein, UniProt Q56366 1-775, looked up, variant D141A E143A A485L T590I)
DNA polymerase: B2 DNA polymerase with W476K, T590I
modifications: Therminator
B4: T144G: Therminator with mutation T144G (9° N DNA pol numbering) (protein, UniProt Q56366 1-775, looked up, variant D141A E143A A485L T144G)
DNA polymerase: B2 DNA polymerase with T144G, W476K
modifications: Therminator
B5: Therminator: DNA polymerase of SEQ ID NO:12, derivative of Thermococcus sp. 9° N-7 DNA polymerase (D141A/E143A/A485L), New England Biolabs (protein)
chain: B2 DNA polymerase with W476K
B6: I521L: Therminator with mutation I521L (9° N DNA pol numbering) (protein, UniProt Q56366 1-775, looked up, variant D141A E143A A485L I521L)
DNA polymerase: B2 DNA polymerase with W476K, I521L
modifications: Therminator
B7: L478S: Therminator with mutation L478S (9° N DNA pol numbering) (protein, UniProt Q56366 1-775, looked up, variant D141A E143A A485L L478S)
DNA polymerase: B2 DNA polymerase with W476K, L478S
modifications: Therminator
B8: A639F: Therminator with mutation A639F (9° N DNA pol numbering) (protein, UniProt Q56366 1-775, looked up, variant D141A E143A A485L A639F)
DNA polymerase: B2 DNA polymerase with W476K, A639F
modifications: Therminator
B9: T514S: Therminator with mutation T514S (9° N DNA pol numbering) (protein, UniProt Q56366 1-775, looked up, variant D141A E143A A485L T514S)
DNA polymerase: B2 DNA polymerase with W476K, T514S
modifications: Therminator
B10: D718N: Therminator with mutation D718N (9° N DNA pol numbering) (protein, UniProt Q56366 1-775, looked up, variant D141A E143A A485L D718N)
DNA polymerase: B2 DNA polymerase with W476K, D718N
B11: G153D: Therminator with mutation G153D (9° N DNA pol numbering) (protein, UniProt Q56366 1-775, looked up, variant D141A E143A A485L G153D)
DNA polymerase: B2 DNA polymerase with G153D, W476K
modifications: Therminator
B12: R743A: Therminator with mutation R743A (9° N DNA pol numbering) (protein, UniProt Q56366 1-775, looked up, variant D141A E143A A485L R743A)
DNA polymerase: B2 DNA polymerase with W476K, R743A
B13: K477M: Therminator with mutation K477M (9° N DNA pol numbering) (protein, UniProt Q56366 1-775, looked up, variant D141A E143A A485L K477M)
DNA polymerase: B2 DNA polymerase with W476K, K477M
modifications: Therminator

How the values were obtained:
Assay type in all cases: biochemical
[1] = tested on: Human DNA library; test: Sequencing with Lightning Terminators, Human DNA library (120 cycles)
Procedure: (§1) This section generally describes how the present mutant polymerases were used for sequencing-by-synthesis, and how their performance in sequencing was measured. Sequencing was performed on a breadboard instrument, essentially as described in Hertzog D, et al., “A high-performance, low-cost approach to next-generation sequencing”, BioOptics World. 2011 Issue November/December 2011.
(§2) In this example, a variety of mutations were introduced into Pfu10 by multi-site mutagenesis or into Pfu A486L/Y546H by domain substitutions to explore an acceptable degree of reduced identity and identify other mutant Pfu polymerases containing L486, F494, H546, and W477. […] Pfu10 and Pfu10-N12 were evaluated for performance in sequencing with Lightning Terminators, as described above.

[2] = tested on: E. coli DNA library; test: Sequencing with Lightning Terminators, E. coli DNA library (120 cycles)
Procedure: as §1, §2

[3] = tested on: Lightning Terminators; test: Sequencing-by-synthesis with Lightning Terminators (87 cycles); design: ARL (87 cycles) / Lead + Lag / Leading / Lagging: unit not given here
Procedure: as §1
In this example, mutations were introduced into the DNA polymerase of SEQ ID NO: 12 (Therminator) in an attempt to improve its capability in sequencing with 3′-OH unblocked terminators. Such mutations to Thermococcus sp. 9° N DNA polymerase are disclosed in U.S. Pat. Nos. 9,273,352; 9,677,059; 9,765,309; U.S. Pat. App. Publication No. 20160032377. The following table summarizes sequencing metrics with Lightning Terminators.
As used in this example and those that follow, “Lead+Lag” refers to dephasing errors in Sequencing by Synthesis technology caused by either reading the next base signal (Lead) or reading the previous base signal (Lag) relative to current base signals. Such errors may arise because of imperfect incoporation of reversible terminators by the polymerase.
In this example, mutant polymerases were created by introducing certain mutations (D141A/E143A/A485L) which are present in Therminator. The three mutations were introduced at the equivalent positions in JDF3 (Thermococcus sp. JDF3) and Pfu (Pyrococcus furisosus) DNA polymerases. The new mutant polymerases were then evaluated for their performance in sequencing with Lightning Terminators, as described above.

[4] = Therminator mutants, same unit concentrations (0.08 U/ul in cycle 1 and 0.008 U/ul in cycles 2-n)
[5] = alternative polymerases (D141A/E143A), same protein concentrations (0.02 ug/uL in cycle 1 and 0.002 ug/uL in cycles 2-n)

Molecule	% reads >85 bp [3, 4]	ARL (87 cycles) [3, 4]	Lead + Lag [3, 4]	further results
B1				% reads >85 ([1]; Human DNA library): 93.3%; ARL (120 cycles) ([1]; Human DNA library): 111.6; FracQ30 ([1]; Human DNA library): 0.68; Lead + Lag ([1]; Human DNA library): 1.0; Sequencing performance with Lightning Terminators (in words) ([1]; Human and E. coli libraries, compared with Pfu10): performs comparably if not slightly better than Pfu10; % reads >85 [2]: 82.6%; ARL (120 cycles) [2]: 93.8; FracQ30 [2]: 0.65; Lead + Lag [2]: 0.9
B2	31.8%	70.2	1.4	
B3	32.2%	68.1	1.3	
B4	31.8%	70.5	1.4	
B5	35.4%	72.3	1.6	% reads >85 bp ([3]; Example 3): 49.6%; FracQ30 ([3]; Example 3): 0.58; Lagging ([3]; Example 3): 0.61; Leading ([3]; Example 3): 0.70; ARL (87 cycles) ([3]; Example 3, Therminator 110 runs, Pfu10 12 runs): 76.0; % reads >85 [3, 5]: 49.6%; ARL (87 cycles) [3, 5]: 76.0; Lead + Lag [3, 5]: 1.3
B6	2.8%	53.9	2.8	
B7	19.6%	65.8	1.6	
B8	6.9%	58.5	2.3	
B9	38.3%	72.0	1.1	
B10	17.9%	65.6	1.8	
B11	21.5%	66.7	1.8	
B12	8.6%	55.0	2.4	
B13	27.7%	68.8	1.6	
